# Laboratory results taken from patent publication US20200165325A1.
# Columns and labels:
# [1] = target: Env (gp120) of HIV-1 strain 0815.v3.c3 (HIV-1)
# [2] = target: Env (gp120) of HIV-1 strain 1006_11_C3_1601 (HIV-1)
# [3] = target: Env (gp120) of HIV-1 strain 1056_10_TA11_1826 (HIV-1)
# [4] = target: Env (gp120) of HIV-1 strain 231966.c02 (HIV-1)
# [5] = target: Env (gp120) of HIV-1 strain 3103.v3.c10 (HIV-1)
# [6] = target: Env (gp120) of HIV-1 strain 3301.v1.c24 (HIV-1)
# [7] = target: Env (gp120) of HIV-1 strain 3415.v1.c1 (HIV-1)
# [8] = target: Env (gp120) of HIV-1 strain 3817.v2.c59 (HIV-1)
# [9] = target: Env (gp120) of HIV-1 strain 620345.c01 (HIV-1)
# [10] = target: Env (gp120) of HIV-1 strain 6535.3 (HIV-1)
# [11] = target: Env (gp120) of HIV-1 strain 6545.v4.c1 (HIV-1)
# [12] = target: Env (gp120) of HIV-1 strain 703357.C02 (HIV-1)
# [13] = target: Env (gp120) of HIV-1 strain 928-28 (HIV-1)
# [14] = target: Env (gp120) of HIV-1 strain C1080.c03 (HIV-1)
# [15] = target: Env (gp120) of HIV-1 strain C3347.c11 (HIV-1)
# [16] = target: Env (gp120) of HIV-1 strain CAAN5342.A2 (HIV-1)
# [17] = target: Env (gp120) of HIV-1 strain CNE17 (HIV-1)
# [18] = target: Env (gp120) of HIV-1 strain CNE20 (HIV-1)
# [19] = target: Env (gp120) of HIV-1 strain CNE30 (HIV-1)
# [20] = target: Env (gp120) of HIV-1 strain CNE53 (HIV-1)
# [21] = target: Env (gp120) of HIV-1 strain CNE58 (HIV-1)
# [22] = target: Env (gp120) of HIV-1 strain Ce0682_E4 (HIV-1)
# [23] = target: Env (gp120) of HIV-1 strain Ce1176_A3 (HIV-1)
# [24] = target: Env (gp120) of HIV-1 strain Ce2010_F5 (HIV-1)
# [25] = target: Env (gp120) of HIV-1 strain Ce703010054_2A2 (HIV-1)
# [26] = target: Env (gp120) of HIV-1 strain Du156.12 (HIV-1)
# [27] = target: Env (gp120) of HIV-1 strain P0402_c2_11 (HIV-1)
# [28] = target: Env (gp120) of HIV-1 strain P1981_C5_3 (HIV-1)
# [29] = target: Env (gp120) of HIV-1 strain PVO.4 (HIV-1)
# [30] = target: Env (gp120) of HIV-1 strain Q259.d2.17 (HIV-1)
# [31] = target: Env (gp120) of HIV-1 strain Q461.e2 (HIV-1)
# [32] = target: Env (gp120) of HIV-1 strain Q769.d22 (HIV-1)
# [33] = target: Env (gp120) of HIV-1 strain R1166.c01 (HIV-1)
# [34] = target: Env (gp120) of HIV-1 strain R2184.c04 (HIV-1)
# [35] = target: Env (gp120) of HIV-1 strain SC422661.8 (HIV-1)
# [36] = target: Env (gp120) of HIV-1 strain T250-4 (HIV-1)
# [37] = target: Env (gp120) of HIV-1 strain T251-18 (HIV-1)
# [38] = target: Env (gp120) of HIV-1 strain T255-34 (HIV-1)
# [39] = target: Env (gp120) of HIV-1 strain T257-31 (HIV-1)
# [40] = target: Env (gp120) of HIV-1 strain T278-50 (HIV-1)
# [41] = target: Env (gp120) of HIV-1 strain THRO4156.18 (HIV-1)
# [42] = target: Env (gp120) of HIV-1 strain TRO.11 (HIV-1)
# [43] = target: Env (gp120) of HIV-1 strain WEAU_d15_410_787 (HIV-1)
# [44] = target: Env (gp120) of HIV-1 strain X1193_c1 (HIV-1)
# [45] = target: Env (gp120) of HIV-1 strain X2131_C1_B5 (HIV-1)
# [46] = target: Env (gp120) of HIV-1 strain ZM109F.PB4 (HIV-1)
# [47] = target: Env (gp120) of HIV-1 strain ZM197M.PB7 (HIV-1)
# [48] = target: Env (gp120) of HIV-1 strain ZM214M.PL15 (HIV-1)
# [49] = target: Env (gp120) of HIV-1 strain ZM247v1(Rev-) (HIV-1)
# [50] = target: Env (gp120) of HIV-1 strain ZM249M.PL1 (HIV-1)
substance,measurement,setting,value
NIH45-46^G54W IgG (antibody),neutralization IC50,[1],< 0.001 µg/mL
same,neutralization IC50,[2],< 0.001 µg/mL
same,neutralization IC50,[3],0.024 µg/mL
same,neutralization IC50,[4],0.02 µg/mL
same,neutralization IC50,[5],0.2 µg/mL
same,neutralization IC50,[6],< 0.001 µg/mL
same,neutralization IC50,[7],< 0.001 µg/mL
same,neutralization IC50,[8],> 50 µg/mL
same,neutralization IC50,[9],> 50 µg/mL
same,neutralization IC50,[10],0.03 µg/mL
same,neutralization IC50,[11],18.9 µg/mL
same,neutralization IC50,[12],3.43 µg/mL
same,neutralization IC50,[13],0.06 µg/mL
same,neutralization IC50,[14],0.2 µg/mL
same,neutralization IC50,[15],< 0.001 µg/mL
same,neutralization IC50,[16],0.07 µg/mL
same,neutralization IC50,[17],0.036 µg/mL
same,neutralization IC50,[18],0.04 µg/mL
same,neutralization IC50,[19],0.052 µg/mL
same,neutralization IC50,[20],< 0.001 µg/mL
same,neutralization IC50,[21],0.02 µg/mL
same,neutralization IC50,[22],0.01 µg/mL
same,neutralization IC50,[23],0.16 µg/mL
same,neutralization IC50,[24],0.038 µg/mL
same,neutralization IC50,[25],0.027 µg/mL
same,neutralization IC50,[26],< 0.001 µg/mL
same,neutralization IC50,[27],0.003 µg/mL
same,neutralization IC50,[28],0.02 µg/mL
same,neutralization IC50,[29],0.05 µg/mL
same,neutralization IC50,[30],< 0.001 µg/mL
same,neutralization IC50,[31],0.009 µg/mL
same,neutralization IC50,[32],< 0.001 µg/mL
same,neutralization IC50,[33],0.13 µg/mL
same,neutralization IC50,[34],0.005 µg/mL
same,neutralization IC50,[35],0.02 µg/mL
same,neutralization IC50,[36],1.33 µg/mL
same,neutralization IC50,[37],0.26 µg/mL
same,neutralization IC50,[38],< 0.001 µg/mL
same,neutralization IC50,[39],0.13 µg/mL
same,neutralization IC50,[40],> 50 µg/mL
same,neutralization IC50,[41],0.54 µg/mL
same,neutralization IC50,[42],0.04 µg/mL
same,neutralization IC50,[43],< 0.001 µg/mL
same,neutralization IC50,[44],< 0.001 µg/mL
same,neutralization IC50,[45],0.05 µg/mL
same,neutralization IC50,[46],0.002 µg/mL
same,neutralization IC50,[47],0.04 µg/mL
same,neutralization IC50,[48],0.03 µg/mL
same,neutralization IC50,[49],0.32 µg/mL
same,neutralization IC50,[50],0.002 µg/mL
NIH45-46^G54Y IgG (antibody),neutralization IC50,[1],< 0.001 µg/mL
same,neutralization IC50,[2],0.005 µg/mL
same,neutralization IC50,[3],0.044 µg/mL
same,neutralization IC50,[4],0.06 µg/mL
same,neutralization IC50,[5],0.3 µg/mL
same,neutralization IC50,[6],0.003 µg/mL
same,neutralization IC50,[7],< 0.001 µg/mL
same,neutralization IC50,[8],> 50 µg/mL
same,neutralization IC50,[9],> 50 µg/mL
same,neutralization IC50,[10],0.08 µg/mL
same,neutralization IC50,[11],> 50 µg/mL
same,neutralization IC50,[12],5.6 µg/mL
same,neutralization IC50,[13],0.12 µg/mL
same,neutralization IC50,[14],0.29 µg/mL
same,neutralization IC50,[15],0.011 µg/mL
same,neutralization IC50,[16],0.1 µg/mL
same,neutralization IC50,[17],0.073 µg/mL
same,neutralization IC50,[18],0.33 µg/mL
same,neutralization IC50,[19],0.099 µg/mL
same,neutralization IC50,[20],0.006 µg/mL
same,neutralization IC50,[21],0.04 µg/mL
same,neutralization IC50,[22],0.017 µg/mL
same,neutralization IC50,[23],0.21 µg/mL
same,neutralization IC50,[24],0.049 µg/mL
same,neutralization IC50,[25],0.022 µg/mL
same,neutralization IC50,[26],0.007 µg/mL
same,neutralization IC50,[27],0.012 µg/mL
same,neutralization IC50,[28],0.04 µg/mL
same,neutralization IC50,[29],0.06 µg/mL
same,neutralization IC50,[30],0.009 µg/mL
same,neutralization IC50,[31],0.023 µg/mL
same,neutralization IC50,[32],0.007 µg/mL
same,neutralization IC50,[33],0.24 µg/mL
same,neutralization IC50,[34],0.015 µg/mL
same,neutralization IC50,[35],0.04 µg/mL
same,neutralization IC50,[36],> 50 µg/mL
same,neutralization IC50,[37],0.35 µg/mL
same,neutralization IC50,[38],0.04 µg/mL
same,neutralization IC50,[39],0.18 µg/mL
same,neutralization IC50,[40],> 50 µg/mL
same,neutralization IC50,[41],0.66 µg/mL
same,neutralization IC50,[42],0.08 µg/mL
same,neutralization IC50,[43],0.002 µg/mL
same,neutralization IC50,[44],0.006 µg/mL
same,neutralization IC50,[45],0.1 µg/mL
same,neutralization IC50,[46],0.026 µg/mL
same,neutralization IC50,[47],0.07 µg/mL
same,neutralization IC50,[48],0.06 µg/mL
same,neutralization IC50,[49],0.42 µg/mL
same,neutralization IC50,[50],0.003 µg/mL
